The conditions of data set [1]: cited from earlier work.
A short description of data set [2]: Cell-free conversion of β-carotene to zeaxanthin with cell lysate expressing CrtZ. The data set is classed as biochemical. The conditions noted are these: 1.67 mM β-carotene, 24 hours. The procedure: Enzyme Expression and Purification: All genes were synthesized and cloned into expression plasmids and then transformed into E. coli cells for expression. Cells were grown in Terrific Broth media supplemented with 50 μg/mL kanamycin sulfate at 37° C. and 200 rpm until A595=0.6. Cells were cooled to 18° C., protein expression was induced, and the cultures were grown for an additional 18 h. Cell pellets were collected by centrifugation, and then resuspended in a 1.8 mL lysis buffer (50 mM Tris pH 8.5, 150 mM NaCl, 10% Glycerol (v/v)) per gram of cell paste. Cell lysates were prepared by sonication and clarified by centrifugation at 11,000×g for 10 minutes, at 4° C. After clarification, lysate was kept on ice or flash frozen and stored at −80° C. for later use.
Analytical methods: For sampling, 5× volume of THE was mixed with the reaction fluid, followed by high-speed centrifugation. Samples were run on an HPLC system to examine the amount of β-cryptoxanthin and zeaxanthin present in the reaction mixture. The HPLC method was as follows: An Agilent 1200 HPLC was fitted with an Acclaim C-30 Column 250 mm×4.6 mm, 5 μm, equipped with an Acclaim C-30 guard column. The column was heated to 20° C. with the sample block being maintained at 20° C. For each sample, 10 μL was injected and the product was eluted at a flow rate of 1.0 ml/min using Methanol (solvent A) and tert-butyl-methyl ether (solvent B) with the following gradient: 80% A to 65% A for 10 min, 65% A to 10% A for 10 min, 10% A for 5 min, 10% A to 80% for 0.5 min, and 80% A for 5.5 min for column equilibration. The run time was a total of 31 minutes with zeaxanthin eluting at 7.2 mins, β-cryptoxanthin eluting at 12.2 minutes, and β-carotene eluting at 16.9 min. A diode array detector (DAD) was used for the detection of the molecule of interest at 450 nm.
As described herein, β-carotene is hydroxylated by the CrtZ enzyme (CrtZ, EC1.14.15.24) to form β-cryptoxanthin, and then β-cryptoxanthin is hydroxylated by CrtZ to form Zeaxanthin. […]

Where [3] appears, read: 2% polysorbate 20, 6% THE, 0.2 mM FeSO4, 16° C.

With `CC1=C(/C=C/C(C)=C/C=C/C(C)=C/C=C/C=C(C)/C=C/C=C(C)/C=C/C2=C(C)C[C@@H](O)CC2(C)C)C(C)(C)CCC1` [β-cryptoxanthin], the solubility in water result in data set [1] is “insoluble in water”.

As to `CC1=C(/C=C/C(C)=C/C=C/C(C)=C/C=C/C=C(C)/C=C/C=C(C)/C=C/C2=C(C)CCCC2(C)C)C(C)(C)CCC1` [β-carotene], the solubility in water entry in data set [1] was “insoluble in water”.

B1: P. ananatis CrtZ: β-carotene hydroxylase enzyme (CrtZ, EC1.14.15.24) from P. ananatis, used as E. coli cell lysate; likely Pantoea WP_013027996.1 (protein, listed as Pantoea sp.)
chain: MLWIWNALIVFVTVIGMEVVAALAHKYIMHGWGWGWHLSHHEPRKGAFEVNDLYAVVFAALSILLIYLGSTGMWPLQWIGAGMTAYGLLYFMVHDGLVHQRWPFRYIPRKGYLKRLYMAHRMHHAVRGKEGCVSFGFLYAPPLSKLQATLRERHGARAGAARDAQGGEDEPASGK
Consider B1, for which the “β-carotene substrate converted into zeaxanthin” value in data set [2] (2% polysorbate 20 (v/v), 6% THE (v/v), 0.2 mM FeSO4, concentrated cell lysate, 16° C.) is on record as 84 % (molar ratio). In data set [2] (setting [3]), the zeaxanthin concentration produced is listed as roughly 1.4 mM and the zeaxanthin titer produced came to 796 mg/L.

These data come from patent publication US20240368663A1, “CELL-FREE BIOPRODUCTION OF B-CRYPTOXANTHIN AND ZEAXANTHIN” (DEBUT BIOTECHNOLOGY, INC., priority 2021, published 2024).
